Source: the DeepSol protein solubility set

Assay: soluble on expression in E. coli; label from the status in PepcDB or PDB records
For “MGSDKIHHHHHHMKISPLCPSCLLGRVYYEAKLVTDDEDLISQCVDESLKILAENYSSRPINAHLATRIHRRVYEILGVEDPYAEVKARANEVARQVLPLAKEIVEGSDDPFKTAVIVSIVGNNFDYGVQGHKVVEEEFRDFLKRKVQEGLKINDTERIKELSSGKVVYLTDNAGEIFFDTLLMKEIKRRCEKLTAVVRGRPIISDATIEDARLARVDKIADELLTNGKGAIGIIMDELPDETRKALEEADLIVAKGMANYECLSDGSLKPIAFLLTAKCEPVARDIGVNVGDMVAKVVE”, the “soluble on expression in E. coli” value was “soluble”.
With “MAHHHHHHMAAFKPYRFIIFDQQIKNNQFYKSIITQLNLSLLCKEIYLNESFSCYQYEKLFLKKLVYYSFNNLGNNLKAREIKCSGHSSVDTGEHKLQQLINNVNKNENKNININKNINKNINKNVNINNADHNKCSDNSSDYHNFYENECMNNLNLINDLGDRHKNHPLYNVMMKNKKKELTTQSDINKLVSFHIYDNKNEKTFKNILSLNDTYNIDHMNILCLNNYKPIFNMLENYSINNKRISIYYPFYIINDDKNNKPQSNLYTKVADYCYNIVSDILPLNYKNINLSDIIKAIIINTELCQNEGNERMEVLKFMDIMDIIGKN” the “soluble on expression in E. coli” value was “soluble”.
With “MAHHHHHHMAYGDDSKIVEGIVGERNIYKRREESTETNPFQSKHKKRLLFVLDVSASMYRFEGMDHRLSKLLESTVMVMEAFAGFEEKIDYAMVGHNGDSACIELVSFGHSPANQKARMEVCQRMVAHAQYCWSGDNTVEAMRQSIDLVTAEKGDAYLVFVISDANLPRYGIQPSELSAIMRSHKEVQMFCIFIATLGEQASNLQAEMPPGHGFECLDTQALPHILKQIFFSVNLL” the “soluble on expression in E. coli” value was “not soluble”.
In the case of “MGSSHHHHHHSSGLVPAGSHMASMTGGQQMGRGSMSLQVNLLNNTFANPFMNAAGVMCTTTEELVAMTESASGSLVSKSCTPALREGNPTPRYQALPLGSINSMGLPNNGFDFYLAYAAEQHDYGKKPLFLSMSGLSMRENVEMCKRLAAVATEKGVILELNLSCPNVPGKPQVAYDFDAMRQCLTAVSEVYPHSFGVKMPPYFDFAHFDAAAEILNEFPKVQFITCINSIGNGLVIDAETESVVIKPKQGFGGLGGRYVLPTALANINAFYRRCPGKLIFGCGGVYTGEDAFLHVLAGASMVQVGTALQEEGPSIFERLTSELLGVMAKKRYQTLDEFRGKVRTLDGTAESTR”, the “soluble on expression in E. coli” value is reported as “soluble”.
For “MSNGGKRPPEDDSKLPYYKLVVIGDGGVGKSSLTIQFFQKQFVDYYDPTIEDQYIQHCEIDGNWVIMDVLDTAGQEEFSAMREQYIRGGRGFLLVFSVTERKSFEEAHKLYNQVLRVKDRSEYPVLLVANKVDLINQRVVSEQEGRELAAQLKLMYIETSAKEPPVNVDAAFHELVRIVRSFPSDEGDHEASMASVPRTKKRKDKGKCLIS”, the “soluble on expression in E. coli” value was “soluble”.
With “MEQATQQIAISDAAQAHFRKLLDTQEEGTHIRIFVVNPGTPNAECGVSYCPPNAVEESDIEMKYNTFSAFIDEVSLPFLEEAEIDYVTEELGAQLTLKAPNAKMRKVADDAPLIERVEYVIQTQINPQLANHGGRITLIEITEDGYAVLQFGGGCNGCSMVDVTLKDGVEKQLVSLFPNELKGAKDITEHQRGEHSYYLEHHHHHH” the “soluble on expression in E. coli” value was “soluble”.
In the case of “MSLNYSVLPPEINSLRMFTGAGSAPMLAASVAWDRLAAELAVAASSFGSVTSGLAGQSWQGAAAAAMAAAAAPYAGWLAAAAARAAGASAQAKAVASAFEAARAATVHPMLVAANRNAFVQLVLSNLFGQNAPAIAAAEAMYEQMWAADVAAMVGYHGGASAAAAQLSSWSIGLQQALPEGHHHHHH”, the “soluble on expression in E. coli” value is reported as “soluble”.
For “MPTRKSKILDVALSNSVISNLNIMAPIGSSDHNTIKFTVQLLQNISVPKKMIPDFSKLDWPCCATYFENIEWGHIRTMFSQAVPTMPMPETSKPVPQYLRSFEQMVKNQFSKTIMSKTMNDFIEYIYLARKYRKKLRKYLSNLEVKLFKKKGNTLIDNDENEIVSELDKANLLASYFEAQYTNQNNTNFALDDDFVSDQPIPWVTDAEVLKVIMASKKSCSVTSDQVPFTFIKILSPLISSVLAQIFNLSMMRGQVPHAWTESIVIPLDKITNANNPTDFRPISLTSHLCRVYERCILAKIELFLIDNKFWSQNQHGFRPKKSTVTNMLESLNDWSKSIDLGEQIDIIYLDFSKAFDRLPHDLLLDKLVSLRMNKNLLIWLNEFLSNRSFRVRIGQTLSSRKLATCGVPQGAVLSPLLFGIYVNDISSILPEKVACKQFADDTKLYVSTPKTESENNLQSALDAVVDWTRGSKLTLNQSETVHVTVGKRRTDFKYHLDGYPIERKAITRDLGFLISEKLDFSEHWRKCINLAKFQLANMFNQYSTSNKKLMILLYKTFIRPRLEYGTVVSSPTKKSDEKAIESVQNAFTRRLYSRIKKRYINPTDKDYKTAMERNELFDLQTLSTRRKIIDRIQVIRMNNGKVDLKTSEFFEQQETHTRSKKKYIWSTVPIKHRVFQTFILLMVLVQFSIGLGNFARDIRNFGGAGSGNKTCDPSRDNDCDSPATVPSSTTKAPRYRNNTTESPPPTPPSSPPAPEGIYSFLQNNFIPRKINNLPVFQDVTTKGIQHVILVSSRLRTSLQTEKSRISQNSISYLIIDFLKSITLEIEALTNTSNCKPNSKDLRCPGKPLFCKFKNFDAAECKCSEPRAKVCKEDFEFDAQREYCTKSVKHPKDLRCEGELLFFKFHWNTTACHCINHQRDRVCAHDFQSDEDKKYQCNKKPTDLRCKKQKLYCKFHLDDKDCRCFESNQKACKKGVSGFYSSNDTLKFPSSIWRQFKLYFKKILQIFNRQMRGIFNVIHHRLHHSARKT”, the “soluble on expression in E. coli” value was “not soluble”.
For “MAQLYFYYSAMNAGKSTALLQSSYNYQERGMRTVVYTAEIDDRFGAGKVSSRIGLSSPAKLFNQNSSLFDEIRAEHEQQAIHCVLVDECQFLTRQQVYELSEVVDQLDIPVLCYGLRTDFRGELFIGSQYLLAWSDKLVELKTICFCGRKASMVLRLDQAGRPYNEGEQVVIGGNERYVSVCRKHYKEALQVGSLTAIQERHRHD”, the “soluble on expression in E. coli” value was “not soluble”.
With “MKSYQPKSLLNDLQYYITPPHDCSYLDNKSARMVFLDPIHRIDVVTLSELSRVGFRRSGDFVYRPECHLCRQCLSCRVPVHDFNMNSLQKKAWKRNQDLRMSIVPTHAATSVHYQLYERYINERHADGDMFPPSLDQFEKFLVHSCTESFFLELWKDDRLICVSTCDLMDDGLSAVYTFFDPDENRRSLGVFAILKQLEYVKSIDLDYLYLGYWVPHSQKMNYKSQYIPLELLLDGQWRRLNRALSQEEISQLGESLMTILPSEWNSMIIKLEHHHHHH” the “soluble on expression in E. coli” value was “not soluble”.
For “MIISAEGDVSIHHCFEAMLISLQEDYRQNTLRQLSRDDIKAGINYVKHYGKYKERTVRVLITALEAPQLYTACFSSNHGIKELAYQLEALGENRTRITYSYDYHPLDIFQKANQFIVGKLFKKSLERQSQAQLAALIQYAKQLQQPSSL”, the “soluble on expression in E. coli” value was “not soluble”.
With “MSLQVEKISIIGLGLIGGSLAKALKEKLGIESITAVDINEKSLSQALKEGFIKEGFTELNESVYNSDIIFICTPVKDAVEYITRLHGKVKAGCILTDTASTKGEIIDYVNSLDNPPCFIGGHPMAGTEKAGFSSSFSHLFENAYYIMSPSKNCPEESLEYLAEIIRGIGAIPIKLDSKEHDIITATISHVPHVIASALVNLVKFSDSPDGKMQTLAAGGFKDITRIASSNPKMWENIILSNKEIVKSTLNKFTETINTFIEYIDNENSNGIYNFFDSAKKFRDSIPNNRKGLIEPQNELIVDVVDKPGIIGEIATILGNNGINIKNINVSNSREFEQGCLRITLPDSGSVAEAYELLAKKGYKVFKIEGHHHHHH” the “soluble on expression in E. coli” value was “soluble”.
For “MGHHHHHHGGHMSLPNFFTPEFGPLRGVRVITTGSIIAGPTAGTILADLGAEVIHVERPKVGDTLRVVPPYFEADGKRIGGEFVCVTRNKLSVALDIKSEEGRKIFYELLKHADIFIENLVWLEERYGITDKDMLEANPRLVIVHVSGFGRSEFGGEDEKCGRGSYDIISQAYSGWCKLAAPPGMEVHRLPLYIGDYVTALFGVIGALSAYVYAKETGRGQVVDVAQFEAIARVIEMYYTMYHNLGINREGEGLRVFNTQPYGLYRVKDGWIAIGAIGPGLYQRFIQALAKATGINPADYPYEECAASPEAVNSEKGRELDRIFNEYLMSHTKEEVEKLFNAFRVPCSRVSTPEDVVRDRHWIERGDIIEVLDETTGRLVKQVGIVPKFSETPGRIWRGPPKLGSDTKKVLKGLLNLSDEQIDELKAKGVVDFEGGS”, the “soluble on expression in E. coli” value was “soluble”.
In the case of “MNKLNICIDIDGTITSPYHFLPYLNDIFNKNITEAECITHNWEELYGSGIRDVYAEFNNKYIHSYDEAKIVEGATEVISTLSKGHNLSFVTARHECLTDVTKNWLSRQGFSDIDVYLLGSDYKVEKARELSCDIFIEDNPLNSVQLADDGVKVILLDTNYNKDVKHQNIVRVSNWIDIEKIIKQGI”, the “soluble on expression in E. coli” value is reported as “not soluble”.
With “MEEYKLSHLKELEAESIHIIREVAAEFENPVMLYSIGKDSSVMVRLAEKAFYPGKVPFPLMHIDSKWKFKEMIQFRDEYAKKHGWNLIVESNMEAFHAGVGPFTHGSKVHTDLMKTQALLHALDKYKFDAAFGGARRDEEKSRAKERIFSFRDKFHQWDPKNQRPELWDIYNARVHKGESIRVFPISNWTELDIWQYIRLENIPIVPLYYAKERPVINLDGNIIMADDDRLPEKYRDQIEMKMVRFRTLGCWPLTGAVESGAATIEEIVEEMMTTTKSERTTRVIDFDQEGSMEQKKREGYF” the “soluble on expression in E. coli” value was “not soluble”.
With “VTVGDQNGMGPSSGYVTRITNDAREDDMENNMKEVSSMIGNLRNMAIDMGNEIGSQNRQVDRIQQKAESNESRIDEANKKATKLLKN” the “soluble on expression in E. coli” value was “soluble”.
In the case of “MKAERILGALYGQALGDAMGMPSELWPRTRVKAHFGWIDRFLPGPKENNAACYFNRAEFTDDTAMALCLADALLECEGNIDPEIIGRNILAWAERFDAFNKNVLGPTSKIALNAIRDGKPIAALENNGVTNGAAMRVSPLGCLLPPTNLTAFIAEVALASSPTHKSDLAVAGAVVVAWAVSRAVNGDTWQSIADSLPAVAHQAQTARITTFSASLSARLELALNIVRHADGVESASEQLYQIIGAGTSTIESVPCAIAMVELANTDPNRCAVLCANLGGDTDTIGAMATAICGALHGVSAINPQLKQTLDEVNQLDFARYAVALASYRQRREAL”, the “soluble on expression in E. coli” value is reported as “not soluble”.
With “MRIDTVNVLLEALPYIKEFYGKTFVIKFGGSAMKQENAKKAFIQDIILLKYTGIKPIIVHGGGPAISQMMKDLGIEPVFKNGHRVTDEKTMEIVEMVLVGKINKEIVMNLNLHGGRAVGICGKDSKLIVAEKETKHGDIGYVGKVKKVNPEILHALIENDYIPVIAPVGIGEDGHSYNINADTAAAEIAKSLMAEKLILLTDVDGVLKDGKLISTLTPDEAEELIRDGTVTGGMIPKVECAVSAVRGGVGAVHIINGGLEHAILLEIFSRKGIGTMIKELEG” the “soluble on expression in E. coli” value was “soluble”.
With “MSTVNVQIGLHELLNGSNAQIQLSVPQLVEKVLMRNEGKLTSTGAVSASTGKYTGRSPKDKFIVKEASVADKIAWGAVNQPISEEHFNKLYTKVLEYLKEKEELFVFKGFAGADRNYRLPIQVINEYAWHNLFVHQLFIRPTEEELTTHESEFTIVSAPNFKADPAVDGTNSEAFIMVSFEKRIVLIGGTEYAGEMKKSIFSIMNFLLPEQDILSMHCSANVGEEGDVALFFGLSGTGKTTLSADPNRKLIGDDEHGWSDNGVFNIEGGCYAKCVNLSHEKEPQIFDAITFGSVLENVIINDQTRIADYNDTTLTENTRAAYPMHAIDNIILPSVAGHPNTIIFLTADASGVLPPISKLSKEQAMYHFLSGYTSKLAGTERGVTSPQATFSTCFGSPFLPLDASRYAEMLGEKIEKHDAKVFLVNTGWTGGEYGVGKRMNLGYTRAMIQAALNGELAKTETAKHDIFGLEVPLHVPGVPDEVLMPEQTWADKAAYKAKAIELANEFKANFKKFDSVSEDIINLGGPIA” the “soluble on expression in E. coli” value was “not soluble”.
